Source: EP1506972A1 (Genentech Inc., dated 2005)
Positions count from the first letter of the chain named.

Experiments:
Assay in all cases: competitive phage ELISA, soluble IGFBP-1 vs coated IGFBP-1
[1] = target: Ala(1-3)-IGF-I, triple alanine mutant of the first three N-terminal amino acids, displayed on phage (human; bacteriophage M13)
[2] = target: IGF-I D20A (G1S-A70V background) displayed on phage (human; bacteriophage M13)
[3] = target: IGF-I F23A (G1S-A70V background) displayed on phage (human; bacteriophage M13)
[4] = target: IGF-I F25A (G1S-A70V background) displayed on phage (human; bacteriophage M13)
[5] = target: IGF-I G19A (G1S-A70V background) displayed on phage (human; bacteriophage M13)
[6] = target: IGF-I G22A (G1S-A70V background) displayed on phage (human; bacteriophage M13)
[7] = target: IGF-I G42A (G1S-A70V background) displayed on phage (human; bacteriophage M13)
[8] = target: IGF-I I43A (G1S-A70V background) displayed on phage (human; bacteriophage M13)
[9] = target: IGF-I N26A (G1S-A70V background) displayed on phage (human; bacteriophage M13)
[10] = target: IGF-I Q40A (G1S-A70V background) displayed on phage (human; bacteriophage M13)
[11] = target: IGF-I R21A (G1S-A70V background) displayed on phage (human; bacteriophage M13)
[12] = target: IGF-I R37A (G1S-A70V background) displayed on phage (human; bacteriophage M13)
[13] = target: IGF-I S34A (G1S-A70V background) displayed on phage (human; bacteriophage M13)
[14] = target: IGF-I S35A (G1S-A70V background) displayed on phage (human; bacteriophage M13)
[15] = target: IGF-I T41A (G1S-A70V background) displayed on phage (human; bacteriophage M13)
[16] = target: IGF-I V44A (G1S-A70V background) displayed on phage (human; bacteriophage M13)
[17] = target: IGF-I Y24A (G1S-A70V background) displayed on phage (human; bacteriophage M13)
[18] = target: T1, IGF-I F16A (G1S-A70V background) displayed on phage (human; bacteriophage M13)
T1 construct: not shown: M13 gene III fragment (residues 249-406, display carrier) and the IGF-g3 junction
T1 chain: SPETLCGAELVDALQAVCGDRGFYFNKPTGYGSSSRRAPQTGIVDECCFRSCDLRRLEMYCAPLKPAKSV

[19] = target: T2, IGF-I G30A (G1S-A70V background) displayed on phage (human; bacteriophage M13)
T2 construct: not shown: Display carrier: M13 gene III protein fragment (residues 249-406) and the junction to it
T2 chain: T1 chain with A16F, G30A

[20] = target: T3, IGF-I S33A (G1S-A70V background) displayed on phage (human; bacteriophage M13)
T3 construct: not shown: Display carrier: M13 gene III protein fragment (residues 249-406) and the junction to it
T3 chain: T1 chain with A16F, S33A

[21] = target: T4, IGF-I E58A (G1S-A70V background) displayed on phage (human; bacteriophage M13)
T4 construct: not shown: M13 gene III fragment (residues 249-406), the display partner, and its junction to IGF-I
T4 chain: T1 chain with A16F, E58A

[22] = target: T5, IGF-I L64A (G1S-A70V background) displayed on phage (human; bacteriophage M13)
T5 construct: not shown: M13 gene III fragment (residues 249-406), the display partner, and its junction to IGF-I
T5 chain: T1 chain with A16F, L64A

[23] = target: T6, IGF-I S69A (G1S-A70V background) displayed on phage (human; bacteriophage M13)
T6 construct: not shown: Display carrier: M13 gene III protein fragment (residues 249-406) and its junction to Val70

B1: human IGFBP-1 (other, UniProt P08833 26-259, looked up)
chain: APWQCAPCSAEKLALCPPVSASCSEVTRSAGCGCCPMCALPLGAACGVATARCARGLSCRALPGEQQPLHALTRGQGACVQESDASAPHAAEAGSPESPESTEITEEELLDNFHLMAPSEEDHSILWDAISTYDGSKALHVTNIKKWKEPCRIELYRVVESLAKAQETSGEEISKFYLPNCNKNGFYHSRQCETSMDGEAGLCWCVYPWNGKRIPGSPEIRGDPNCQIYFNVQN
notes: Secreted recombinant protein
IC50 [1]: 90.4 nM | relative IC50 (IC50mut/IC50 G1S-A70V) [1]: 11 fold | IC50 [2]: 8.4 nM | relative IC50 (IC50mut/IC50 G1S-A70V) [2]: 1 fold | IC50 [3]: 10.9 nM | relative IC50 (IC50mut/IC50 G1S-A70V) [3]: 1.3 fold | IC50 [4]: 181 nM | relative IC50 (IC50mut/IC50 G1S-A70V) [4]: 22.1 fold | IC50 [5]: 11 nM | relative IC50 (IC50mut/IC50 G1S-A70V) [5]: 1.3 fold | IC50 [6]: 15.9 nM | relative IC50 (IC50mut/IC50 G1S-A70V) [6]: 1.9 fold | IC50 [7]: 15.7 nM | relative IC50 (IC50mut/IC50 G1S-A70V) [7]: 1.9 fold | IC50 [8]: 31.3 nM | relative IC50 (IC50mut/IC50 G1S-A70V) [8]: 3.8 fold | IC50 [9]: 9.1 nM | relative IC50 (IC50mut/IC50 G1S-A70V) [9]: 1.1 fold | IC50 [10]: 10.2 nM | relative IC50 (IC50mut/IC50 G1S-A70V) [10]: 1.2 fold | IC50 [11]: 7.1 nM | relative IC50 (IC50mut/IC50 G1S-A70V) [11]: 0.9 fold | IC50 [12]: 12.3 nM | relative IC50 (IC50mut/IC50 G1S-A70V) [12]: 1.5 fold | IC50 [13]: 9.5 nM | relative IC50 (IC50mut/IC50 G1S-A70V) [13]: 1.2 fold | IC50 [14]: 11.7 nM | relative IC50 (IC50mut/IC50 G1S-A70V) [14]: 1.4 fold | IC50 [15]: 13.7 nM | relative IC50 (IC50mut/IC50 G1S-A70V) [15]: 1.7 fold | IC50 [16]: 18.8 nM | relative IC50 (IC50mut/IC50 G1S-A70V) [16]: 2.3 fold | IC50 [17]: 13.3 nM | relative IC50 (IC50mut/IC50 G1S-A70V) [17]: 1.6 fold | relative IC50 (IC50mut/IC50 G1S-A70V) [18]: 7 fold | relative IC50 (IC50mut/IC50 G1S-A70V) [19]: 0.9 fold | relative IC50 (IC50mut/IC50 G1S-A70V) [20]: 1.1 fold | relative IC50 (IC50mut/IC50 G1S-A70V) [21]: 1.5 fold | relative IC50 (IC50mut/IC50 G1S-A70V) [22]: 1.5 fold | relative IC50 (IC50mut/IC50 G1S-A70V) [23]: 1.6 fold
